B1: SAGA complex subunit SGF11 (Saccharomyces cerevisiae), Q03067 (parent)
chain: MTEETITIDSISNGILNNLLTTLIQDIVARETTQQQLLKTRYPDLRSYYFDPNGSLDINGLQKQQESSQYIHCENCGRDVSANRLAAHLQRCLSRGARR
partner: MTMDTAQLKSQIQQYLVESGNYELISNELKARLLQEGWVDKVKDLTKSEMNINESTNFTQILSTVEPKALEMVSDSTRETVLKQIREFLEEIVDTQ

Variants of: B1
Conditions: with sus1_yeast SUS1, Q6WNK7

effect of a mutation on the interaction | Variant
decreasing interaction | MTEETITIDSISNGILNALLTTLIQDIVARETTQQQLLKTRYPDLRSYYFDPNGSLDINGLQKQQESSQYIHCENCGRDVSANRLAAHLQRCLSRGARR [N18A]
decreasing interaction | MTEETITIDSISNGILNNALTTLIQDIVARETTQQQLLKTRYPDLRSYYFDPNGSLDINGLQKQQESSQYIHCENCGRDVSANRLAAHLQRCLSRGARR [L19A]
decreasing interaction | MTEETITIDSISNGALNNLLTTLIQDIVARETTQQQLLKTRYPDLRSYYFDPNGSLDINGLQKQQESSQYIHCENCGRDVSANRLAAHLQRCLSRGARR [I15A]
